Results as given in paper PMC6917767.
pKd: −log10 of the molar value.

Assays:
PARP1 = PARP1 (UniProt P09874); experiment: BLI, nucleosome immobilised, PARP1 titrated; details: reference: H2A.X nucleosome; sites S139
[1] = biological target: NUC155, nucleosome with a single double-helical turn linker DNA at one terminus (H2A) (human); experiment: SPR; Biacore 3000, room temperature, 10 ul/min; nucleosome/NCP with biotinylated DNA (600-700 RU) immobilised on CM5 chips with neutravidin; 20 mM Tris pH 7.5, 150 mM NaCl; PARP1 1.15-18.5 nM or NPARP1 2.32-37 nM injected; kinetic titration, 1:1 fit
[2] = biological target: NUC167, nucleosome with a single double-helical turn linker DNA at both termini (H2A) (human); experiment: as above
[3] = biological target: 145 bp nucleosome core particle (NCP) with H2A (human); experiment: as above
[4] = biological target: nucleosome with a single double-helical turn linker DNA at both termini, assembled with H2A (NUC167) (human) (UniProt P06899); experiment: SPR; Biacore 3000, room temperature, 10 ul/min; nucleosome/NCP with biotinylated DNA (600-700 RU) immobilised on CM5 chips with neutravidin; PARP1 (1.15-18.5 nM) or NPARP1 (2.32-37 nM) injected consecutively (kinetic titration, 1:1 fit); 20 mM Tris pH 7.5, 150 mM NaCl
[5] = biological target: 145 bp nucleosome core particle assembled with H2A (NCP) (human) (UniProt P06899); experiment: as above
[6] = biological target: nucleosome with a single double-helical turn linker DNA at one terminus, assembled with H2A (NUC155) (human) (UniProt P06899); experiment: as above
[7] = biological target: NUC167 with H2A.X in place of H2A (human) (UniProt P16104); experiment: BLI; Octet RED96e, 25 C; biotinylated nucleosome captured on streptavidin biosensors; PARP1 0.195-3.125 nM in PBST pH 7.4; association 120 s, dissociation 15 min; 1:1 model
[8] = biological target: NUC167, nucleosome with a single double-helical turn linker DNA at both termini (H2A) (human); experiment: as above
[9] = biological target: NUC167 with H2A.X-S139E (mutant mimic of γH2A.X) in place of H2A (human); experiment: as above
[10] = biological target: NUC167 with γH2A.X [H2A.X (pS139)] in place of H2A (human) (UniProt P16104); experiment: as above
[11] = biological target: nucleosome with a single double-helical turn linker DNA at both termini, assembled with H2A (NUC167) (human) (UniProt P06899); experiment: BLI; Octet RED96e, 25 °C; biotinylated nucleosome captured on streptavidin biosensors; PARP1 0.195-3.125 nM in PBST pH 7.4 (150 mM NaCl, 0.05% Tween-20); association 120 s, dissociation 15 min; 1:1 model
[12] = biological target: NUC167 nucleosome assembled with H2A.X-S139E (mutant mimic of γH2A.X) in place of H2A (human) (UniProt P06899); experiment: as above
[13] = biological target: NUC167 nucleosome assembled with H2A.X in place of H2A (human) (UniProt P06899); experiment: as above
[14] = biological target: NUC167 nucleosome assembled with γH2A.X [H2A.X (pS139)] in place of H2A (human) (UniProt P06899); experiment: as above

Substance | KD (PARP1) | pKd [1] | koff [1] | kon [1] | koff [2] | kon [2] | pKd [3] | koff [3] | kon [3] | koff [4] | kon [4] | pKd [5] | koff [5] | kon [5] | pKd [6] | koff [6] | kon [6] | also measured
H2A.X (from UniProt P16104) H2A.X-S139E nucleosome | stronger; reference 73.2 ± 0.3 | – | – | – | – | – | – | – | – | – | – | – | – | – | – | – | – | –
H2A.X (from UniProt P16104) γH2A.X (pS139) nucleosome | stronger; reference 73.2 ± 0.3 | – | – | – | – | – | – | – | – | – | – | – | – | – | – | – | – | –
NPARP1 (N-terminal half of PARP1, amino acids 1-486) (from UniProt P09874 1-486) (domain or fragment) | – | 7.76 | 0.00107 s⁻¹ | 61900 M⁻¹ s⁻¹ | 0.0244 s⁻¹ | 3e+06 M⁻¹ s⁻¹ | 6.73 | 0.00424 s⁻¹ | 22600 M⁻¹ s⁻¹ | – | – | – | – | – | – | – | – | pKd [2]: 8.09
NPARP1 (N-terminal half of PARP1, amino acids 1-486, lacking the WGR and catalytic domains) (from UniProt P09874 1-486) (domain or fragment) | – | – | – | – | – | – | – | – | – | 0.0244 s⁻¹ | 3e+06 M⁻¹ s⁻¹ | 6.73 | 0.00424 s⁻¹ | 22600 M⁻¹ s⁻¹ | 7.76 | 0.00107 s⁻¹ | 61900 M⁻¹ s⁻¹ | pKd [4]: 8.09
PARP1 (poly(ADP-ribose) polymerase 1) (from UniProt P09874 1-1014) (enzyme) | – | 9.26 | 0.00107 s⁻¹ | 1.93e+06 M⁻¹ s⁻¹ | 0.000562 s⁻¹ | 2.28e+06 M⁻¹ s⁻¹ | 9.15 | 0.000743 s⁻¹ | 1.06e+06 M⁻¹ s⁻¹ | – | – | – | – | – | – | – | – | koff [7]: 0.000274 s⁻¹; kon [7]: 3.75e+06 M⁻¹ s⁻¹; koff [8]: 0.000158 s⁻¹; kon [8]: 825000 M⁻¹ s⁻¹; koff [9]: 0.000328 s⁻¹; kon [9]: 7.5e+06 M⁻¹ s⁻¹; koff [10]: 0.000116 s⁻¹; kon [10]: 2.43e+06 M⁻¹ s⁻¹
poly(ADP-ribose) polymerase 1 (PARP1), full-length (from UniProt P09874 1-1014) (enzyme) | – | – | – | – | – | – | – | – | – | 0.000562 s⁻¹ | 2.28e+06 M⁻¹ s⁻¹ | 9.15 | 0.000743 s⁻¹ | 1.06e+06 M⁻¹ s⁻¹ | 9.26 | 0.00107 s⁻¹ | 1.93e+06 M⁻¹ s⁻¹ | koff [11]: 0.000158 s⁻¹; kon [11]: 825000 M⁻¹ s⁻¹; koff [12]: 0.000328 s⁻¹; kon [12]: 7.5e+06 M⁻¹ s⁻¹; koff [13]: 0.000274 s⁻¹; kon [13]: 3.75e+06 M⁻¹ s⁻¹; koff [14]: 0.000116 s⁻¹; kon [14]: 2.43e+06 M⁻¹ s⁻¹
